The source of these data is publication PMC5673658, “Single-Molecule Fluorescence Methods to Study Plant Hormone Signal Transduction Pathways” (Frontiers in Plant Science, 2017).

Data set [1] addresses phosphorylated BES1 (pBES1), BES1 with a His-tag phosphorylated by BIN2 (UniProt Q9LN63). In words: CoSMoS (colocalization single-molecule spectroscopy, TIRFM); His-tagged pBES1 immobilised on the slide; binding percentage of 14-3-3κ with pBES1 before and after incubation for 1 h with pBKI1C at >1,000 times the concentration of pBES1.
In data set [2] the target is 14-3-3κ as used in the CoSMoS competition experiment (UniProt P48348). The data set is described as above.
Data set [3] concerns the molecule itself. In words: single-molecule TIRF microscopy, stepwise photobleaching; His-tagged BES1 phosphorylated by BIN2 (30 min, 37°C) immobilised on the slide; 14-3-3κ/C103S-alexa555 added; bleaching steps counted in 188 trajectories; labeling efficiency 34.7%.

Chain of phosphorylated BES1 (pBES1), BES1 with a His-tag phosphorylated by BIN2 (Q9LN63 whole entry): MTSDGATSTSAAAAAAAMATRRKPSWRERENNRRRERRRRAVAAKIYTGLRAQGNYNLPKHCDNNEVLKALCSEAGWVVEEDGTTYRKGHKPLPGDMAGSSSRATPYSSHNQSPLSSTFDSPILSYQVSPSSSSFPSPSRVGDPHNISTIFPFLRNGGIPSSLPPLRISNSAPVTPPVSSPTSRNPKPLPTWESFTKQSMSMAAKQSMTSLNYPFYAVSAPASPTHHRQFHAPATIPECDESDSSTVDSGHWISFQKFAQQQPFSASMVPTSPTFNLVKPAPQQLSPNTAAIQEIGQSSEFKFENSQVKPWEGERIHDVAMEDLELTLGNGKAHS

Regarding “14-3-3κ as used in the CoSMoS competition experiment (from UniProt P48348 1-248)”, the binding percentage of 14-3-3κ with pBES1 before pBKI1C in data set [1] was found to be 18%. In data set [2], “phosphorylated BKI1 C terminal (pBKI1C), BKI1C phosphorylated by JKC (domain or fragment)” displayed a binding percentage of 14-3-3κ with pBES1 left after pBKI1C (>1,000 times the concentration of pBES1, 1 h) of 9%.

B1: alexa555-labeled 14-3-3κ/C103S (natural protein, UniProt P48348 1-248, looked up)
chain: MATTLSRDQYVYMAKLAEQAERYEEMVQFMEQLVSGATPAGELTVEERNLLSVAYKNVIGSLRAAWRIVSSIEQKEESRKNEEHVSLVKDYRSKVETELSSISSGILRLLDSHLIPSATASESKVFYLKMKGDYHRYLAEFKSGDERKTAAEDTMIAYKAAQDVAVADLAPTHPIRLGLALNFSVFYYEILNSSEKACSMAKQAFEEAIAELDTLGEESYKDSTLIMQLLRDNLTLWTSDMQEQMDEA
modifications: alexa555 (maleimide derivative) on a cysteine, site not given; labeling efficiency 34.7%
notes: 14-3-3κ (14-3-3 kappa), a plant 14-3-3 protein of the brassinosteroid signaling pathway; printed molecular weight 29073.70 D; also called 14-3-3κ/C103S-alexa555; 14-3-3κ-alexa555; source: E. coli BL21 (DE3)-plysS, purified (amylose and gel filtration columns)
As for B1, in data set [3], the stoichiometry N – broadly, a count of units in the complex or per binding partner – was 2.
